# Key:
# Assay in all cases: cell-based or functional assay
# [1] = target: MCP-1RB (monocyte chemoattractant protein-1 receptor B) (human) (UniProt P41597)
# [2] = target: MIP-1α/RANTES receptor (Homo sapiens (Human)) (UniProt P32246)
# [3] = target: MCP-1RA (monocyte chemoattractant protein-1 receptor A) (human) (UniProt P41597)
# Sequence of MCP-1RA (monocyte chemoattractant protein-1 receptor A) (human) (P41597 whole entry): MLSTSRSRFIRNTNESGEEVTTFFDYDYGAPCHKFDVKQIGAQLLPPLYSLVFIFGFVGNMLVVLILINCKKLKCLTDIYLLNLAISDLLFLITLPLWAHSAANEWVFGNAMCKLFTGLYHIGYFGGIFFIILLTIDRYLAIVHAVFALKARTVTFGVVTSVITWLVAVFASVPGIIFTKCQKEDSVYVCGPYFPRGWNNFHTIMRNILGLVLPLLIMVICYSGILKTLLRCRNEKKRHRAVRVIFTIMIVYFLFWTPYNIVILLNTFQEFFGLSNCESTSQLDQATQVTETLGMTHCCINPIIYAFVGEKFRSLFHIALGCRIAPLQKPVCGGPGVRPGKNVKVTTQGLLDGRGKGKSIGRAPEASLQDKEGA
# Sequence of MCP-1RB (monocyte chemoattractant protein-1 receptor B) (human) (P41597 other isoform, or with tags, fused parts or gaps): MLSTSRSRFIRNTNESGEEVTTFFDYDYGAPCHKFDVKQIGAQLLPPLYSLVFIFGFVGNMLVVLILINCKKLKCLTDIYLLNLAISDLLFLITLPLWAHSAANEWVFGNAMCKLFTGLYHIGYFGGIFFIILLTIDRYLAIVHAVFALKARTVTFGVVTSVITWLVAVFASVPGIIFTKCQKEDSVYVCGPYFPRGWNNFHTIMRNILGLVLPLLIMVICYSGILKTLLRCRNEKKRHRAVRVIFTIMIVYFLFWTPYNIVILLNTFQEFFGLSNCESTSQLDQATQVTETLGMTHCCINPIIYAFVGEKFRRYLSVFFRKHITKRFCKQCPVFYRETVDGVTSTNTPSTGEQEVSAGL
# Sequence of MIP-1α/RANTES receptor (Homo sapiens (Human)) (P32246 whole entry): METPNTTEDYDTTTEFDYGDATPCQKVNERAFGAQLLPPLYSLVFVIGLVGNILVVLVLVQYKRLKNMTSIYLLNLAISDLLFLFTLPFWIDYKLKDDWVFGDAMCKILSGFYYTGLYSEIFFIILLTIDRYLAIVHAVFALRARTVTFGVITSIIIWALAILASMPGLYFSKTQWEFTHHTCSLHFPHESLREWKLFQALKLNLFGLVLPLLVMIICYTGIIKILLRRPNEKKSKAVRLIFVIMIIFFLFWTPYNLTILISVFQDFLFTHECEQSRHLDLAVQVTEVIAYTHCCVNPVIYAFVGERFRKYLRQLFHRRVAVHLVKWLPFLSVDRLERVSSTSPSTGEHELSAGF
"IC50(nM), Inhibition of Adenylyl Cyclase, 293 cells stably expressing MCP-1RB [1]","IC50(nM), Inhibition of Adenylyl Cyclase, 293 cells stably expressing the MIP-1α/RANTES receptor [2]",Substance,further results
> 1000 nM,> 1000 nM,Gro-α (from UniProt P09341 35-107) (ligand),
> 1000 nM,,IL-8 (interleukin-8) (from UniProt P10145 28-99) (ligand),
0.09 nM,820 nM,MCP-1 (monocyte chemoattractant protein-1) (from UniProt P13500 24-99) (ligand),"EC50, 45Ca efflux in Xenopus oocytes injected with receptor cRNA [1]: 15 nM; EC50, intracellular calcium mobilization (indo-1) in stably transfected MCP-1RB/293 cells [1]: 3.4 nM; Selectivity (MCP-1RB against the MIP-1α/RANTES receptor, from the adenylyl cyclase IC50s) [1]: > 9000 fold; block of the forskolin-induced increase of cAMP in MCP-1RB-transfected 293 cells [1]: 78%; reduction of basal cAMP accumulation in MCP-1RB-transfected 293 cells [1]: 55%; EC50, 45Ca efflux in Xenopus oocytes injected with receptor cRNA [3]: 15 nM"
> 1000 nM,,MIP-1α (from UniProt P10147 27-92) (ligand),
> 1000 nM,,MIP-1β (from UniProt P13236 24-92) (ligand),
> 1000 nM,,RANTES (from UniProt P13501 24-91) (ligand),

# — patent publication US20040223968A1
